From patent US20050164166A1 (US Dept. of Health and Human Services, published 2005) come the findings set out here.

Among the targets are Env RW020.5 (clade A) (HIV-1); Env BR025.9 (clade C) (HIV-1); Env US005.11 (clade B) (HIV-1); Env US715.6 (clade B) (HIV-1); Env UG037.8 (clade A) (HIV-1); Env UG975.10 (clade G) (HIV-1); Env BR019.4 (clade F/B) (HIV-1); Env HT593.1 (clade B) (HIV-1); Env 89.6 (clade B) (HIV-1, UniProt Q73372 32-853); Env NL4-3 (clade B) (HIV-1); Env TH022.4 (clade EA) (HIV-1).
What all share (assay): cell-based or functional assay

B1: soluble scFv m6 (scFv, not shown: small tags and cut ends)
scFv: VLTQSPGTLSLSAGERATLSCRASQSVSSGSLAWYQQKPGQAPRLLIYGASTRATGIPDRFSGSGSGTDFTLTIGRLEPEDLAVYYCQQYGTSPYTFGQGTKLEIKRTGGGGSSGGASGGGGSVRLLEQSGAEVKKPGSSVQVSCKASGGTFSMYGVNWVRQAPGHGLEWMGGIIPIFGTSNYAQKFRGRVTFTADQATSTAYMELTNLRSDDTAVYYCARDFGPDWEDGDSYDGSGRGFFDFWGQGTLVTVSS
Consider B1, for which the “% of fusion inhibition (cell-cell fusion assay, syncytia count, antibody at 50 ug/ml)” value (“% of fusion inhibition” below) with Env RW020.5 (clade A) is 56%; in the experiment with Env BR025.9 (clade C), 57%; with Env US005.11 (clade B) it was 83%; with Env US715.6 (clade B), 27%; with Env UG037.8 (clade A), 66%; with Env UG975.10 (clade G), 48%. Also, the “% of fusion inhibition” value in the experiment with Env BR019.4 (clade F/B) worked out at 37%; with Env HT593.1 (clade B) it was 50%; with Env 89.6 (clade B) it was 98%; with Env NL4-3 (clade B), 100%; with Env TH022.4 (clade EA), 72%.

B2: Fab X5 (Fab, V domains shown)
VH: VQLLEQSGAEVKKPGSSVQVSCKASGGTFSMYGFNWVRQAPGHGLEWMGGIIPIFGTSNYAQKFRGRVTFTADQATSTAYMELTNLRSDDTAVYYCARDFGPDWEDGDSYDGSGRGFFDFWGQGTLVTVSS
VL: ELVLTQSPGTLSLSAGERATLSCRASQSVSSGSLAWYQQKPGQAPRLLIYGASTRATGIPDRFSGSGSGTDFTLTIGRLEPEDLAVYYCQQYGTSPYTFGQGTKLEIKR
B2: the “% of fusion inhibition” value worked out at 45% with Env RW020.5 (clade A); 71% with Env BR025.9 (clade C); 72% with Env US005.11 (clade B); 56% in the experiment with Env US715.6 (clade B); 34% with Env UG037.8 (clade A); 19% with Env UG975.10 (clade G). The “% of fusion inhibition” value in the experiment with Env BR019.4 (clade F/B) amounted to 37%; in the experiment with Env HT593.1 (clade B), 27%; with Env 89.6 (clade B) it was 93%; in the experiment with Env NL4-3 (clade B), 83%; with Env TH022.4 (clade EA) it was 43%.
